Here are results for 1 substance from PMC5072170.

The series deals with Cc1cn([C@H]2C[C@H](O)[C@@H](COP(=O)(O)OP(=O)(O)O[C@H]3O[C@H](C)[C@@H](O)[C@H](N)[C@H]3O)O2)c(=O)[nH]c1=O. Description: purified protein. Particulars: 5 mM N10-formyl-THF, 50 mM HEPPS pH 8.0, hyperbolic.

On to QdtF (Providencia alcalifaciens), for which the Michaelis constant (Km) (commonly the substrate concentration at which the rate is half of its maximum) turned out to be 450 ± 90 µM; the kcat – broadly, the maximal rate divided by the concentration of active sites – came to 2.43 ± 0.31 s⁻¹; the kcat/Km (usually the second-order rate constant that governs catalysis at low substrate concentration) stood at 5400 M⁻¹ s⁻¹.
